Data from patent US8455205B2, “Metalloproteinase 9 binding proteins” (Dyax Corp., priority 2008, dated 2013).
Entries after “also recorded” stand apart in the source; their conditions may differ. One block for each molecule: values may come before it.

Key:
[1] = target: T1, MMP-9 (Homo sapiens, UniProt P14780); assay: Affinity ranking of Fabs by BIACORE Flexchip (SPR); type: binding
Description: Surface Plasmon Resonance (SPR). The interaction of binding protein and a target can be analyzed using SPR. SPR or Biomolecular Interaction Analysis (BIA) detects biospecific interactions in real time, without labeling any of the interactants. Changes in the mass at the binding surface (indicative of a binding event) of the BIA chip result in alterations of the refractive index of light near the surface (the optical phenomenon of surface plasmon resonance (SPR)). The changes in the refractivity generate a detectable signal, which are measured as an indication of real-time reactions between biological molecules. Methods for using SPR are described, for example, in U.S. Pat. No. 5,641,640; Raether, 1988, Surface Plasmons Springer Verlag; Sjolander and Urbaniczky, 1991, Anal. Chem. 63:2338-2345; Szabo et al., 1995, Curr. Opin. Struct. Biol. 5:699-705 and on-line resources provide by BIAcore International AB (Uppsala, Sweden). BIAcore Flexchip can be used to compare and rank interactions in real time, in terms of kinetics, affinity or specificity without the use of labels.
Information from SPR can be used to provide an accurate and quantitative measure of the equilibrium dissociation constant (Kd), and kinetic parameters, including Kon and Koff, for the binding of a binding protein to a target. Such data can be used to compare different biomolecules. For example, selected proteins from an expression library can be compared to identify proteins that have high affinity for the target or that have a slow Koff. This information can also be used to develop structure-activity relationships (SAR). For example, the kinetic and equilibrium binding parameters of matured versions of a parent protein can be compared to the parameters of the parent protein. Variant amino acids at given positions can be identified that correlate with particular binding parameters, e.g., high affinity and slow Koff. This information can be combined with structural modeling (e.g., using homology modeling, energy minimization, or structure determination by x-ray crystallography or NMR). […]
Target sequence in this assay (P14780 94-707): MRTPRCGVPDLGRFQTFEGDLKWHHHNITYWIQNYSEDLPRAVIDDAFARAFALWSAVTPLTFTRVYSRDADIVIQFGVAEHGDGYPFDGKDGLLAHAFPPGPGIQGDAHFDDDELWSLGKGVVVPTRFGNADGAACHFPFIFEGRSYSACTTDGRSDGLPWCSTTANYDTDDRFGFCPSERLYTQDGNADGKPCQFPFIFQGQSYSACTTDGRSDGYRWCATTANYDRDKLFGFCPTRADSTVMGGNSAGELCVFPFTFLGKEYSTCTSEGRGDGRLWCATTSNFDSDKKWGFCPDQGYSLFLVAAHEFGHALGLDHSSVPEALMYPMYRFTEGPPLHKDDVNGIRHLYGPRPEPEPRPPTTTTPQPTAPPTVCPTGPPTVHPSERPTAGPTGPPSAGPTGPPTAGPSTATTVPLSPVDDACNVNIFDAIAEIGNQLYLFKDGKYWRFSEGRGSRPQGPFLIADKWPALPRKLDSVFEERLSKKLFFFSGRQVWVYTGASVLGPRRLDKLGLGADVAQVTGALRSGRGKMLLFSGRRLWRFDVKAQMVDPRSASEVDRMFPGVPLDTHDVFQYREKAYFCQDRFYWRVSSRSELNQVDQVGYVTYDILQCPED

[2] = target: T2, mouse MMP-9 (Mus musculus, UniProt P41245); assay: Inhibition of mouse MMP-9 activity, fluorogenic substrate; type: biochemical
T2 construct: purchased R&D 909-MM
Description: (§1) The human MMP-1, -2, -3, -7, -8, -9, -10, -12, -13, and -14 were obtained from BIOMOL (Human MMP-9: SE-244, BIOMOL; Human MMP-14: SE-259, BIOMOL; Human MMP-1, -2, -8, -13: MMP MultiPack-1 from BIOMOL; Human MMP-3, -7, -10, -12: MMP MultiPack-2 from BIOMOL). The mouse MMP-2 and -9 were from R&D (Mouse MMP-9: 909-MM, R&D Mouse MMP-2: 924-MP, R&D). The substrate was Mca-Pro-Lys-Pro-Leu-Ala-Leu-Dap(Dnp)-Ala-Arg-NH2 (SEQ ID NO: 951)(M-2225, Bachem) for human MMP-3, and Mca-Lys-Pro-Leu-Gly-Leu-Dap(Dnp)-Ala-Arg-NH2 (SEQ ID NO: 952)(M-2350, Bachem) for all the other enzymes. The substrate concentration in the assay was 10 μM.

[3] = target: T3, human MMP-2 (Homo sapiens, UniProt P08253); assay: MMP selectivity panel, residual enzyme activity; type: biochemical; conditions: FIG. 5
T3 construct: purchased BIOMOL MMP MultiPack-1
T3 sequence (P08253 110-660): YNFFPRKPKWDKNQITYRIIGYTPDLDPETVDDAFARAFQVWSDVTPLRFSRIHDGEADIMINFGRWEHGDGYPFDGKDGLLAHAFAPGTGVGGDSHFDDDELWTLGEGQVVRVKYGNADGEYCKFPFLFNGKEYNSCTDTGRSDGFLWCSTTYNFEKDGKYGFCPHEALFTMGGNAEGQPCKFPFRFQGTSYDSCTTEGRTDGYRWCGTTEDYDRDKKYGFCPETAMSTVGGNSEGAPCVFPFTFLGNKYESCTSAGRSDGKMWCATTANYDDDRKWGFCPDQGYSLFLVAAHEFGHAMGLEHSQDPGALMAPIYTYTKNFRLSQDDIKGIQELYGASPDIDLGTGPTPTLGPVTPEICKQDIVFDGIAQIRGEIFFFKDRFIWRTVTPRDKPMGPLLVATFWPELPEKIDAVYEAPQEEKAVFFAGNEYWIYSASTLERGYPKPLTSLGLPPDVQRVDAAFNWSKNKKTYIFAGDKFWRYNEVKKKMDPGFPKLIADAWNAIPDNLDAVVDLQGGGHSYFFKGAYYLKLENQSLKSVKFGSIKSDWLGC
Description: as §1

[4] = target: T1, MMP-9; assay: Inhibition of human MMP-9 activity, fluorogenic peptide substrate (IC50 / residual activity at 1 μM antibody); type: biochemical; design: Human MMP-9 catalytic domain (BIOMOL, SE-244); purchased BIOMOL SE-244
Method: MMP-9 binding proteins can be characterized in assays that measure their modulatory activity toward MMP-9 or fragments thereof in vitro or in vivo. For example, MMP-9 can be combined with a substrate such as Mca-Pro-Leu-Ala-Cys(Mob)-Trp-Ala-Arg-Dap(Dnp)-NH2 (SEQ ID NO: 12) under assay conditions permitting cleavage by MMP-9. The assay is performed in the absence of the MMP-9 binding protein, and in the presence of increasing concentrations of the MMP-9 binding protein. The concentration of binding protein at which 50% of the MMP-9 activity (e.g., binding to the substrate) is inhibited is the IC50 value (Inhibitory Concentration 50%) or EC50 (Effective Concentration 50%) value for that binding protein.
(§2) After sequencing analysis, the phage display were converted into sFabs and then into IgG1s. Their ability to inhibit MMP-9 and other MMPs (1, 3, 7, 8, 9, 10, 12, 13, 14) was determined by usual means. Compounds were initially screened at 1 μM against MMP-9 and those compounds that inhibited MMP-9>80% were subjected to additional screens against purified recombinant human MMPs. For these additional screens, an IC50 value was determined.
The human MMP-1, -2, -3, -7, -8, -9, -10, -12, -13, and -14 were obtained from BIOMOL (Human MMP-9: SE-244, BIOMOL; Human MMP-14: SE-259, BIOMOL; Human MMP-1, -2, -8, -13: MMP MultiPack-1 from BIOMOL; Human MMP-3, -7, -10, -12: MMP MultiPack-2 from BIOMOL). […]
Target sequence in this assay (P14780 107-444 limits assumed): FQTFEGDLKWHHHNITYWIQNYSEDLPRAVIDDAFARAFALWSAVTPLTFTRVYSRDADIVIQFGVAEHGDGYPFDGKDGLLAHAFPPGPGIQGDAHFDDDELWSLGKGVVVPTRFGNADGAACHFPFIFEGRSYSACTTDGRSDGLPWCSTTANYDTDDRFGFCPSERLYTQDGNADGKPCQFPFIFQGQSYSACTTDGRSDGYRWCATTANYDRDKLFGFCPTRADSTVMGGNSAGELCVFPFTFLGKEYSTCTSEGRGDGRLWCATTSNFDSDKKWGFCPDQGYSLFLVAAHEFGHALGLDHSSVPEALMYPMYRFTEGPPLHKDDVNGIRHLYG

[5] = target: T4, human MMP-12 (Homo sapiens, UniProt P39900); assay: MMP selectivity panel, residual enzyme activity; type: biochemical; conditions: FIG. 5
T4 construct: purchased BIOMOL MMP MultiPack-2
Method: as §2, §1

[6] = target: T5, human MMP-14 (Homo sapiens, UniProt P50281); assay: MMP selectivity panel, residual enzyme activity; type: biochemical; conditions: FIG. 5
T5 construct: purchased BIOMOL SE-259
Method: as §2, §1

[7] = target: T6, human MMP-3 (Homo sapiens, UniProt P08254); assay: MMP selectivity panel, residual enzyme activity; type: biochemical; conditions: FIG. 5
T6 construct: purchased BIOMOL MMP MultiPack-2
Method: as §2, §1

[8] = target: T7, human MMP-8 (Homo sapiens, UniProt P22894); assay: MMP selectivity panel, residual enzyme activity; type: biochemical; conditions: FIG. 5
T7 construct: purchased BIOMOL MMP MultiPack-1
Method: as §2, §1

T2 sequence (P41245 108-730): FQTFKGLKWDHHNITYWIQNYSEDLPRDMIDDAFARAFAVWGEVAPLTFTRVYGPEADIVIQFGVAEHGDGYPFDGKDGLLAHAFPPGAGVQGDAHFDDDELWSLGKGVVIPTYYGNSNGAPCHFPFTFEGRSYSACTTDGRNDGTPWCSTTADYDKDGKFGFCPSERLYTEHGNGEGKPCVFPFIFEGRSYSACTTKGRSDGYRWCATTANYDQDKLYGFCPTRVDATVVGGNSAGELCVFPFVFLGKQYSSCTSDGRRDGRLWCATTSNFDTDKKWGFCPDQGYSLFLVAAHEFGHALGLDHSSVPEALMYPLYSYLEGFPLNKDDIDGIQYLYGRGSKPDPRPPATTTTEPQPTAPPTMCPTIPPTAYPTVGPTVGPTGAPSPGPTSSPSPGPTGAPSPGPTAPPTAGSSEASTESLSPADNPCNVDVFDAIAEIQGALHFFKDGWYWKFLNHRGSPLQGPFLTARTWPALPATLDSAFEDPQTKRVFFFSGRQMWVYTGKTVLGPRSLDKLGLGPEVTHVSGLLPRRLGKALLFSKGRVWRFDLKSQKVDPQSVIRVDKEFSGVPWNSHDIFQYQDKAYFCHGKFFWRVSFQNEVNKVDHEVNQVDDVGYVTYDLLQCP
T7 sequence (P22894 101-467): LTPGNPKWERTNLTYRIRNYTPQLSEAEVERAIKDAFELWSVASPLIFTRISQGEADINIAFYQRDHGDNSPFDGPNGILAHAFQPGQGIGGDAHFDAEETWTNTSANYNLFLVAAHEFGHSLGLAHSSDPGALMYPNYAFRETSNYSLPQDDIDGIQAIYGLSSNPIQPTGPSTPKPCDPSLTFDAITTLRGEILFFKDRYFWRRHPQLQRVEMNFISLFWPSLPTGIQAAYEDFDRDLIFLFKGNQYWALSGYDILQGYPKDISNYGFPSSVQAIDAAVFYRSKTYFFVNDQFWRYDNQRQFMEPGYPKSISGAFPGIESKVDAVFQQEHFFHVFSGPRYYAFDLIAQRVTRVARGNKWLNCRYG
T4 sequence (P39900 106-470): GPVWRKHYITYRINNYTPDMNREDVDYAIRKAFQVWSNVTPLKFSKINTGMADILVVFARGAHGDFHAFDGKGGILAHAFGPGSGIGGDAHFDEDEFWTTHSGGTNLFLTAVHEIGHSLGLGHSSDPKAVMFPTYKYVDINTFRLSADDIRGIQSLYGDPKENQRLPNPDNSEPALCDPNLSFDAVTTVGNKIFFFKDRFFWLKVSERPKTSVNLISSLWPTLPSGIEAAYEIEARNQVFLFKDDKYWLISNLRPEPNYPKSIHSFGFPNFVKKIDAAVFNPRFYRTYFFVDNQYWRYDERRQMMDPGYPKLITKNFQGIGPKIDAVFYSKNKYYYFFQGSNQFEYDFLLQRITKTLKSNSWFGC
T6 sequence (P08254 100-477): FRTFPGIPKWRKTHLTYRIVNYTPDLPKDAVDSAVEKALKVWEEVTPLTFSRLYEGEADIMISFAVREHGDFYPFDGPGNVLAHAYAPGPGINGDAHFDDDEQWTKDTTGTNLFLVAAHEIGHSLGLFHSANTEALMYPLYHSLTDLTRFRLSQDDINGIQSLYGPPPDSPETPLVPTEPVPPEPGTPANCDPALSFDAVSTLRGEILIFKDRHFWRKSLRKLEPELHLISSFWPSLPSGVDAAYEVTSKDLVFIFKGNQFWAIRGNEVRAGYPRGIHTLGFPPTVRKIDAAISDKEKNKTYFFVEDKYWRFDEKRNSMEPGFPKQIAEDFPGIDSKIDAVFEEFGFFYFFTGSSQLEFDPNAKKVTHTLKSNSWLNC

Difference from reference ([1]; Flexchip spot signal, Fabs from the R0017 plate): 845.8099 | ka ([1]; Flexchip, Fabs): No Binding * | kd ([1]; Flexchip, Fabs): No Binding *
Molecule: TIMP-1: endogenous MMP inhibitor, control spot on Flexchip

Inhibition of human MMP-2 (in words) [3]: not | Selectivity for MMP-9 versus other MMPs tested ([4]; compared to the other human and murine MMPs tested): selective inhibitor of MMP-9 | Inhibition of human MMP-12 (in words) [5]: not | Inhibition of human MMP-14 (in words) [6]: not | Inhibition of human MMP-3 (in words) [7]: not | Inhibition of human MMP-8 (in words) [8]: not
B1: 539A-M0240-B03: Parental isolate (sFab; IgG); h/mMMP-9 antibody inhibitor (antibody, V domains shown)
VL: QYELTQPRSVSGSPGQSVTISCTGTSSDVGGYNYVSWYQQHPGKAPKLMIYDVSKRPSGVPDRFSGSKSGNTASLTISGLQAEDEADYYCCSYAGSYTLVFGGGTKLTVL
VH: EVQLLESGGGLVQPGGSLRLSCAASGFTFSTYQMVWVRQAPGKGLEWVSVIYPSGGPTVYADSVKGRFTISRDNSKNTLYLQMNSLRAEDTAVYYCARGEDYYDSSGPGAFDIWGQGTMVTVSS
Inhibition of mouse MMP-9 activity (in words) [2]: inhibits; also recorded: decrease or inhibit | Inhibition of human MMP-9 activity (in words) ([4]; FIG. 5 / Example 12): inhibits; also recorded: decrease or inhibit
